Test [1] addresses T1, human ICOS on human T cells (human, UniProt Q9Y6W8 21-167).
T1 construct: endogenous receptor on primary cells; also called ICOS on CD4+ and CD8+ T cells of healthy human donors
T1 sequence: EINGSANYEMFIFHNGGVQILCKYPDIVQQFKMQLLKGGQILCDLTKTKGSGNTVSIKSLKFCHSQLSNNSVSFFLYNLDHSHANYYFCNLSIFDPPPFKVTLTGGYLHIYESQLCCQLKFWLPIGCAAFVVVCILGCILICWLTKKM
The test can be described thus: flow cytometry, activated human CD8 T cells, percent FITC positive, mean of donors. As to the method: (§1) Either naive and/or activated CD3+ T cells were re-suspended in PBS with 0.1% BSA (FACS Buffer) containing Human FcR Blocking Solution at 2×10⁶ cells/mL (5 μl FcR Blocking Solution+[…] FACS Buffer per 1 mL). At a concentration of 2×10⁵ cells/well, 100 μl cells were placed into 2 mL 96 well Assay Blocks and incubated at room temperature for 15 minutes. During the incubation, a titration of the binding antibodies, anti-ICOS (H2L5 hIgG4PE) or IgG4 Isotype Control antibody was prepared as a 2× concentration. […] Following the binding incubation, cells were washed twice in 1 mL of FACS buffer, centrifuging at 400×g for 5 minutes at room temperature.
(§2) Data acquisition and compensation were performed on BD FACS instruments, LSR Fortessa X-20 or FACS Canto II using BD Diva (ver. 8.0) software. Data analysis employed Flow Jo software (ver.10.0.8r1). Results are reported as both MFI (Median Fluorescence Intensity) and Percent of cells positive for human IgG kappa light chain FITC staining out of the total live cells or appropriate parent population. EC50s were determined using Graphpad Prism 5 software (ver. 5.04) with non-linear regression of transformed data (X=(log(X)) using a variable slope with 4 parameters (log(Agonist) vs. response—Variable slope).

Test [2] concerns the target T1, human ICOS on human T cells. The test can be described thus: flow cytometry, activated human CD4 T cells, FITC MFI, donor 1123F59. As to the method: (§3) Binding of H2L5 hIgG4PE was assessed in both naive and activated CD3+ T cells.
as §1, §2

The target in test [3] is T2, human FcγR IIa R131 (human, UniProt P12318 36-218, limits assumed).
T2 sequence (looked up): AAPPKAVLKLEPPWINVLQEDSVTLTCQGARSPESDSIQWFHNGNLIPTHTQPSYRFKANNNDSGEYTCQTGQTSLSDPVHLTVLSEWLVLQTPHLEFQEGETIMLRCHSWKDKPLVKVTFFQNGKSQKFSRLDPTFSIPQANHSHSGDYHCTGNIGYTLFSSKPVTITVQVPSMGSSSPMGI
Nature of the test: affinity to human Fcγ receptors; method not described.

Test [4] deals with T3, human FcγR I (human, UniProt P12314 16-288, limits assumed).
T3 construct: also called CD64
T3 sequence (P12314 16-288 limits assumed): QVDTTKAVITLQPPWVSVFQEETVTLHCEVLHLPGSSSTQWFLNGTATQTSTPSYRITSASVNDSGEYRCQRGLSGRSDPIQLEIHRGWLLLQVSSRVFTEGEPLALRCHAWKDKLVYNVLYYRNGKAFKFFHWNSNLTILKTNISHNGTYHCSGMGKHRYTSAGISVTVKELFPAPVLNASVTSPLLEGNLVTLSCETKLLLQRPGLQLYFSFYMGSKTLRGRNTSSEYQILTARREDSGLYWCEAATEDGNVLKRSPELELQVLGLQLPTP
Described as above.

The target of test [5] is T4, human FcγR IIb (human, UniProt P31994 46-217, limits assumed).
T4 sequence (looked up): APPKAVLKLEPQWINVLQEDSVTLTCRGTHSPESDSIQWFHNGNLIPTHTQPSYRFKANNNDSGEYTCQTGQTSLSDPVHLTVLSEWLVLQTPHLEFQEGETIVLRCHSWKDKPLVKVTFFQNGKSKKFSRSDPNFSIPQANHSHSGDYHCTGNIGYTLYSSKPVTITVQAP
Described as above.

Test [6] concerns the target T5, Human ICOS -Fc (human; rabbit, UniProt Q9Y6W8 21-140).
T5 construct: analyte in the BIAcore T200 run; also called Human ICOS (rabbit Fc); not shown: rabbit Fc
T5 sequence: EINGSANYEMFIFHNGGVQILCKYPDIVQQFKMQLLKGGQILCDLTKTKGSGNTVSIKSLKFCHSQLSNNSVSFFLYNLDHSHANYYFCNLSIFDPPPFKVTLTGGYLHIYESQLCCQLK
The test can be described thus: SPR, BIAcore T200; antibody captured on anti-human IgG (CM5), ICOS (rabbit Fc) as analyte at 1-256 nM, 25°C, 1:1 model. The protocol:
(§4) The binding kinetics affinity of the humanized H2L5 hIgG4PE antibody was determined used the BIAcore T200 Anti-human IgG on Fc2 of a CM5 chip Anti-ICOS H2L5 hIgG4PE captured on the surface. Anti-human IgG surface blocked with […] hIgG1 control to prevent non-specific binding of rabbit Fc. Human and cyno ICOS (rabbit Fc) passed over the captured antibodies at 256 nM, 64 nM, 16 nM, 4 nM and 1 nM. Buffer alone was used to double reference binding curves. MgCl₂ was used to regenerate surface. Run carried out at 25° C. Data fitted to 1:1 model using T200 evaluation software. Antibody concentration: 2.5 μg/mL
(§5) The ICOS binding data was fitted to a 1:1 kinetics model using the T200 data analysis software.

Test [7] deals with T6, Cyno ICOS-Fc (cynomolgus; rabbit, UniProt A0A2K5TQR6 21-140).
T6 construct: analyte in the BIAcore T200 run; also called cyno ICOS (rabbit Fc); cynomolgus ICOS; not shown: Rabbit Fc and any linker
T6 sequence: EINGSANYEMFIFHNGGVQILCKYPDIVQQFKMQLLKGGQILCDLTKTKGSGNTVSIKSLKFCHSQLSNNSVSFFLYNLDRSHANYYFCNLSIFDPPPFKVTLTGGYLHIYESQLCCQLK
The test is described as above. The protocol: as §4, §5

The target in test [8] is T1, human ICOS on human T cells. The test can be described thus: flow cytometry, activated human CD4 T cells, FITC MFI, donor 1141F45. The protocol:
as §3, §1, §2

For test [9] the target is unchanged. Nature of the test: flow cytometry, activated human CD8 T cells, percent FITC positive, donor 2100M39. The protocol:
as §1, §2

For test [10] the target is unchanged. Nature of the test: flow cytometry, activated human CD8 T cells, percent FITC positive, donor 1173F42. The protocol: as §1, §2
For test [11] the target is unchanged. Nature of the test: flow cytometry, activated human CD4 T cells, percent FITC positive, donor 1149M52. As to the method: as §3, §1, §2
The target is the same in test [12]. The test can be described thus: flow cytometry, activated human CD4 T cells, FITC MFI, mean of donors. The protocol:
as §1, §2

B1: H2L5 hIgG4PE (antibody)
heavy: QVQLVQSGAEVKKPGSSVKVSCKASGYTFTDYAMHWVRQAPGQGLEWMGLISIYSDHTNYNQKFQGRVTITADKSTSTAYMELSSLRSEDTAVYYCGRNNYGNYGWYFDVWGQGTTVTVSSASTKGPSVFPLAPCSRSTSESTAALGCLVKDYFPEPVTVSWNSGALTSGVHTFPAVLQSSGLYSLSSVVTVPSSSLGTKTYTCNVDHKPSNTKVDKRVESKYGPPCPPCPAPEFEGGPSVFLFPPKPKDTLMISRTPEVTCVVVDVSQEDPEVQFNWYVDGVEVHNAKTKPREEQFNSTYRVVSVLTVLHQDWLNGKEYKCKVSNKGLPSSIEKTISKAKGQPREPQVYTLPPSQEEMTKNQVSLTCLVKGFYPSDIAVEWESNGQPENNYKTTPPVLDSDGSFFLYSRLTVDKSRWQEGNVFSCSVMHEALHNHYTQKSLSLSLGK
light: EIVLTQSPATLSLSPGERATLSCSASSSVSYMHWYQQKPGQAPRLLIYDTSKLASGIPARFSGSGSGTDYTLTISSLEPEDFAVYYCFQGSGYPYTFGQGTKLEIKRTVAAPSVFIFPPSDEQLKSGTASVVCLLNNFYPREAKVQWKVDNALQSGNSQESVTEQDSKDSTYSLSSTLTLSKADYEKHKVYACEVTHQGLSSPVTKSFNRGEC
notes: also called 422 H2L5 hIgG4PE; H2L5 IgG4PE; copies: 2 + 2
For B1, the EC50 in test [1] worked out at 0.692 µg/mL; in test [2], 1.04 µg/mL; in test [8] it was 1.27 µg/mL; in test [9], 1.23 µg/mL; in test [10], 0.371 µg/mL; in test [11] it was 0.882 µg/mL. This molecule gave an EC50 in [12] of 0.977 µg/mL. Further, the Kd was determined as 2500 nM in test [3]; 645 nM in test [4]; 1470 nM in [5]; 1.34 nM in test [6]; 0.949 nM in test [7]. The results for the koff in test [6] and in test [7] were 0.000396 s⁻¹ and 0.000371 s⁻¹, respectively. For the same molecule, the kon amounted to 297000 M⁻¹ s⁻¹ in test [6] and 391000 M⁻¹ s⁻¹ in test [7].

For the origin of these results see patent US20200140551A1 (GlaxoSmithKline, published 2020).
